Laboratory results published in patent publication US20120231013A1 (Amgen, published 2012).
Values joined by “and” are separate entries in the source; they are usually repeats but may differ in a detail not shown here. Identical values can stand only once.

T1: recombinant mouse TIMP-3 (mouse, UniProt P39876 24-211)
T1 construct: also called MuTIMP-3
T1 sequence (looked up): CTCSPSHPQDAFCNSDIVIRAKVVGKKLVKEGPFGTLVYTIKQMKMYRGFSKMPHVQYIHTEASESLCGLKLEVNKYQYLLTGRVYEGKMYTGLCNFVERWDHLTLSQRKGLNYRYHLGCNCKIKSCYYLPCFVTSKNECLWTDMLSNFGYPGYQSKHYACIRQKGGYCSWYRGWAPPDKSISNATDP

B1: recombinant human TIMP-3 (other, UniProt P35625 24-211, looked up)
chain: CTCSPSHPQDAFCNSDIVIRAKVVGKKLVKEGPFGTLVYTIKQMKMYRGFTKMPHVQYIHTEASESLCGLKLEVNKYQYLLTGRVYDGKMYTGLCNFVERWDQLTLSQRKGLNYRYHLGCNCKIKSCYYLPCFVTSKNECLWTDMLSNFGYPGYQSKHYACIRQKGGYCSWYRGWAPPDKSIINATDP

Tests used:
MMP-13 [1] = target: T2, MMP-13 (UniProt P45452 20-471, limits assumed); assay: cell-based or functional assay
[2] = target: T3, recombinant TIMP-3 (human or mouse; Table 2 does not say which); assay: AlphaScreen, biotinylated TIMP-3, Assay 1
T3 construct: The methods say 'human or mouse TIMP-3'
Procedure: (§1) Peptides were also evaluated by AlphaScreen® (Amplified Luminescent Proximity Homogeneous Assay; PerkinElmer, Waltham, Mass.) a very sensitive non-radioactive homogeneous assay technology that allows the screening of a large range of biological interactions and activities, substantially according to the manufacturer's instructions. Briefly, all dilutions are made in AlphaScreen® Buffer: [40 mM HEPES pH 7.5, 100 mM NaCl, 1 mM CaCl2, 0.1% BSA, 0.05% Tween-20]. The LRP-1 peptides are titrated in a separate polypropylene 96-well plate (Falcon) starting at 4 microM concentration and then diluted serially 3-fold for 12-points, with the last point buffer only. First 2 microL/well of protein titration curve is added to white, small volume, 384-well assay plate (Greiner Bio-One, Stonehouse, UK) in duplicate. Next, 2 microL of biotinylated (AFS, in-house conjmicroGation) recombinant human or mouse TIMP-3, is added at 12 nM (or 3 nM final assay concentration) to the assay plate. Lastly, in subdued light 4 microL of a mixture of streptavidin donor beads, anti-mouse IgG acceptor beads (PerkinElmer) both diluted to 20 microG/mL (10 microG/mL final assay concentration) and 2 nM (1 nM final concentration) rat-anti-HA (clone3F10)-HRP (Roche Diagnostics) is added to the plates. Plates containing 8 microL final assay volme are covered with TopSeal A (to prevent evaporation), spun quickly at 1000 rpm, and incubated overnight (covered with foil to prevent light exposure) before reading on Fusion plate reader (PerkinElmer) using AlphaScreen® parameters (excitation 680 nm and emission 520-620 nm). Data is analyzed using GraphPad Prism 4.01 software. Binding to TIMP-3 is reported as total signal (cps).

[3] = target: T3, recombinant TIMP-3 (human or mouse; …); assay: binding ELISA, Assay 3
[4] = target: T3, recombinant TIMP-3 (human or mouse; …); assay: AlphaScreen, biotinylated TIMP-3, Assay 2
Procedure: as §1

recombinant human TIMP-3 [5] = target: B1; assay: direct ELISA, coated huTIMP-3
Procedure: (§2) After incubation, the coating solution is removed and replaced with 250 microL/well of blocking buffer (1% BSA, TBS [pH 7.5], 1 mM CaCl₂) and incubated with shaking for 1 hour at room temperature. The plates are then washed three times with 200 microL/well with wash buffer 1 (TBS [pH 7.5], 1 mM CaCl₂). The LRP-1 peptides are titrated in assay buffer (0.1% BSA, TBS [pH 7.5], 1 mM CaCl₂, 0.02% Tween-20) in a separate polypropylene non-treated round-bottom 96-well plate (BD Falcon™) starting at 1 microM concentration and then diluted serially 4-fold for 8-points, with the last point buffer only. Then 100 microL/well of the diluted LRP-1 peptide titration is added to the TIMP-3 coated plate and allowed to bind for 1.5 hour at room temperature with shaking. After incubation, the plate is washed three times with 200 microL/well of wash buffer 2 (TBS [pH 7.5], 1 mM CaCl₂, 0.02% Tween-20). […] The assay plate is then washed three times with 200 microL/well with wash buffer 2. The plate is developed by adding 100 microL/well of 1:1 mixture of TMB and H₂O₂ (Pierce, Fisher Thermo Scientific, Rockford Il.), the reaction is stopped by adding 100 microL/well 2NH₂SO₄ (VWR), and read on a SpectraMax microplate reader (Molecular Devices, Sunnyvale, Calif.) at OD450 nm using SOFTmax Pro software version 3.1.2. Data is analyzed using GraphPad Prism 4.01 software. Binding of LRP-1 peptides to TIMP-3 is expressed as binding EC50.

recombinant mouse TIMP-3 = target: T1, recombinant mouse TIMP-3; assay: direct ELISA, coated muTIMP-3
Procedure: as §2

MMP-13 [6] = target: T2, MMP-13; assay: cell-based or functional assay; remark: listed apart in the source
recombinant human TIMP-3 [7] = target: B1; assay: cell-based or functional assay
recombinant human TIMP-3 [8] = target: B1; assay: indirect ELISA, huTIMP-3 captured by anti-TIMP-3 clone 277128
Procedure: Then 100 microL/well of the diluted LRP-1 peptide titration is added to the TIMP-3 coated plate and allowed to bind for 1.5 hour at room temperature with shaking. After incubation, the plate is washed three times with 200 microL/well of wash buffer 2 (TBS [pH 7.5], 1 mM CaCl₂, 0.02% Tween-20). […] The assay plate is then washed three times with 200 microL/well with wash buffer 2. The plate is developed by adding 100 microL/well of 1:1 mixture of TMB and H₂O₂ (Pierce, Fisher Thermo Scientific, Rockford Il.), the reaction is stopped by adding 100 microL/well 2NH₂SO₄ (VWR), and read on a SpectraMax microplate reader (Molecular Devices, Sunnyvale, Calif.) at OD450 nm using SOFTmax Pro software version 3.1.2. Data is analyzed using GraphPad Prism 4.01 software. Binding of LRP-1 peptides to TIMP-3 is expressed as binding EC50.
After incubation, the plate contents are discarded and 250 microL/well of blocking buffer (1% BSA, TBS [pH 7.5], 1 mM CaCl₂) is added to the plate which is incubated with shaking for 1 hour at room temperature. The plate is then washed three times with 200 microL/well with wash buffer 1 (TBS [pH 7.5], 1 mM CaCl₂) followed by the addition of 100 microL of 20 nM recombinant human TIMP-3. The plate is incubated at room temperature for 1 hour. The LRP-1 peptides are titrated as described previously, and 100 microL/well of the diluted LRP-1 peptide titration is added to the TIMP-3 coated plate and allowed to bind for 1.5 hour at room temperature with shaking. After incubation, the plate is washed and the ELISA performed substantially as described previously for the direct binding ELISA.

[9] = target: T3, recombinant TIMP-3 (human or mouse; …); assay: binding ELISA, Assay 1
[10] = target: T3, recombinant TIMP-3 (human or mouse; …); assay: binding ELISA, Assay 2

| Binder | IC50 of TIMP-3 inhibition of MMP-13 (fluorogenic substrate) (MMP-13 [1]) [nM] | total signal (cps) [2] [cps] | EC50 [3] [nM] | total signal (cps) [4] [cps] | EC50 (recombinant human TIMP-3 [5]) [nM] | EC50 (recombinant mouse TIMP-3) [nM] | Direct Inhibition of MMP13 (% decrease), 1000 nM (MMP-13 [6]) [%] | % of the inhibitory activity of TIMP-3 + peptide compared to TIMP-3 alone, 16 nM (recombinant human TIMP-3 [7]) [%] | % of the inhibitory activity of TIMP-3 + peptide compared to TIMP-3 alone, 80 nM (recombinant human TIMP-3 [7]) [%] | % of the inhibitory activity of TIMP-3 + peptide compared to TIMP-3 alone, 2000 nM (recombinant human TIMP-3 [7]) [%] | EC50 (recombinant human TIMP-3 [8]) [nM] | EC50 [9] | % of the inhibitory activity of TIMP-3 + peptide compared to TIMP-3 alone, 400 nM (recombinant human TIMP-3 [7]) [%] | EC50 [10] [nM] |
| --- | --- | --- | --- | --- | --- | --- | --- | --- | --- | --- | --- | --- | --- | --- |
| B1 | 0.5 to 1 | – | – | – | – | – | – | – | – | – | – | – | – | – |
| LRP-1 peptide LA3-5 (Tags implied (Ni-NTA, anti-HA detection), not described) not shown | – | 4000 | 214 | 9000 | 78 | 71 | 2 | 104 | 101 | 101 | 8 | 52.5 nM | – | – |
| LRP-1 peptide LA5-7 (Tags implied (Ni-NTA, anti-HA detection), not described) not shown | – | 2000 | 350 | 8000 | 94 | 74 | 2 | 101 | 99 | 68 | 9 | 210 nM | 93 | – |
| LRP-1 peptide LA24-26 (The end 3574 is inferred from the end of LA26) not shown | – | 150000 | 68 | 120000 | 28 | 15 | 59 | 92 | 95 | – | 8 | 46 nM and 26 nM | 105 | 80 |
